Sequences and labels used below:
B1: BIIB-9-472 (antibody, V domains shown)
VH: EVQLVESGGGLVKPGGSLRLSCAASGFTFSSYSMNWVRQAPGKGLEWVSSISSSSSYIYYADSVKGRFTISRDNAKNSLYLQMNSLRAEDTAVYYCARGGRYSGSWSWNIWGQGTMVTVSS
VL: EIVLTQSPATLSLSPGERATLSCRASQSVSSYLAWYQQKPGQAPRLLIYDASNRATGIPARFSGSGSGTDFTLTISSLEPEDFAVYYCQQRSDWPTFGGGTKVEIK
B2: BIIB-9-475 (antibody, V domains shown)
VH: QVQLQESGPGLVKPSETLSLTCTVSGGSISSYYWSWIRQPPGKGLEWIGSIYYSGSTNYNPSLKSRVTISVDTSKNQFSLKLSSVTAADTAVYYCARDVGGYDYGVGAFDIWGQGTMVTVSS
VL: DIQMTQSPSSLSASVGDRVTITCQASQDITNYLNWYQQKPGKAPKLLIYDASNLETGVPSRFSGSGSGTDFTFTISSLQPEDIATYYCQQSSNFPLTFGGGTKVEIK
B3: BIIB-9-397 (antibody, V domains shown)
VH: QVQLQESGPGLVKPSETLSLTCAVSGYSISSGYYWAWIRQPPGKGLEWIGSIYHSGSTYYNPSLKSRVTISVDTSKNQFSLKLSSVTAADTAVYYCARDVWYVGGFDPWGQGTLVTVSS
VL: B2 VL with T30S, S92D, N93D, F94H, L96P
B4: BIIB-9-471 (antibody, V domains shown)
VH: QVQLQESGPGLVKPSQTLSLTCTVSGGSISSGGYYWSWIRQHPGKGLEWIGYIYYSGSTYYNPSLKSRVTISVDTSKNQFSLKLSSVTAADTAVYYCARSGVSGSGSDNWFDPWGQGTTVTVSS
VL: EIVLTQSPATLSLSPGERATLSCRASQSVSRYLAWYQQKPGQAPRLLIYDASNRATGIPARFSGSGSGTDFTLTISSLEPEDFAVYYCQQDYNYPFTFGGGTKVEIK
B5: BIIB-9-619 (antibody, V domains shown)
VH: QVQLVQSGAEVKKPGASVKVSCKASGYTFTSYYMHWVRQAPGQGLEWMGIINPSGGSTSYAQKFQGRVTMTRDTSTSTVYMELSSLRSEDTAVYYCARDGPRVSDYYMDVWGKGTTVTVSS
VL: B4 VL with R31S, D91R, Y92D, Y94W
B6: BIIB-9-416 (antibody, V domains shown)
VH: QVQLVQSGAEVKKPGASVKVSCKASGYTFTSYYMHWVRQAPGQGLEWMGIINPSGGSTSYAQKFQGRVTMTRDTSTSTVYMELSSLRSEDTAVYYCAREGPMLDYPTYSNWFDPWGQGTLVTVS
VL: B4 VL with L4M, R31S, A51S, D91R, Y92V, N93V, Y94W, F96P
B7: BIIB-9-612 (antibody, V domains shown)
VH: QVQLVQSGAEVKKPGASVKVSCKASGYTFTSYYMHWVRQAPGQGLEWMGIINPSGGSTSYAQKFQGRVTMTRDTSTSTVYMELSSLRSEDTAVYYCARDAGYHWYGMDVWGQGTTVTVSS
VL: B4 VL with D91S, Y92S, N93L, Y94F, F96L
B8: BIIB-9-473 (antibody, V domains shown)
VH: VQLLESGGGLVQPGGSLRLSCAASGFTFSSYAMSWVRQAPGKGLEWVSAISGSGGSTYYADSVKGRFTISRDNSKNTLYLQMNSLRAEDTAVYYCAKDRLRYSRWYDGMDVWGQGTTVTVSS
VL: B4 VL with R31S, D91R, Y92S, N93F, Y94L, F96Y
B9: BIIB-9-451 (antibody, V domains shown)
VH: QLQLQESGPGLVKPSETLSLTCTVSGGSISSSSYYWGWIRQPPGKGLEWIGSISYSGSTYYNPSLKSRVTISVDTSKNQFSLKLSSVTAADTAVYYCARDSGGYYYQGFDYWGQGTLVTVSS
VL: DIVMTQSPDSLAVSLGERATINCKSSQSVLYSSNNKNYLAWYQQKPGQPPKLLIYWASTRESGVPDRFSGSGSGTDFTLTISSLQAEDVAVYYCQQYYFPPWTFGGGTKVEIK
B10: BIIB-9-568 (antibody, V domains shown)
VH: QLQLQESGPGLVKPSETLSLTCTVSGGSISSSSYYWGWIRQPPGKGLEWIGSIYYSGSTYYNPSLKSRVTISVDTSKNQFSLKLSSVTAADTAVYYCARDLGYAATYFDLWGRGTLVTVSS
VL: DIQMTQSPSSLSASVGDRVTITCQASQDISNYLNWYQQKPGKAPKLLIYDASNLETGVPSRFSGSGSGTDFTFTISSLQPEDIATYYCQQYDDYLTFGGGTKVEIK
B11: BIIB-9-1276 (antibody, V domains shown)
VH: B10 VH with L101V, Y103R, A104T, A105Y, T106E, Y107L, L110I, R113Q, L116M
VL: DIQMTQSPSSVSASVGDRVTITCRASQGISSWLAWYQQKPGKAPKLLIYAASSLQSGVPSRFSGSGSGTDFTLTISSLQPEDFATYYCQQGNSFPITFGGGTKVEIK
B12: BIIB-9-1271 (antibody, V domains shown)
VH: QVQLVQSGAEVKKPGASVKVSCKASGYTFTSYYMHWVRQAPGQGLEWMGIINPSGGSTSYAQKFQGRVTMTRDTSTSTVYMELSSLRSEDTAVYYCARDTGGYAFDIWGQGTLVTVSS
VL: EIVMTQSPATLSVSPGERATLSCRASQSVSSNLAWYQQKPGQAPRLLIYGASTRATGIPARFSGSGSGTDFTLTISSLQPEDFATYYCQQGFSFPFTFGGGTKVEIK
B13: BIIB-9-588 (antibody, V domains shown)
VH: QVQLVQSGAEVKKPGASVKVSCKASGYTFTSYYMHWVRQAPGQGLEWMGIINPSGGSTTYAQKFQGRVTMTRDTSTSTVYMELSSLRSEDTAVYYCARDGGGSYDYWSGYWYDVWGQGTTVTVSS
VL: B12 VL with D70E, P80S, T85V, G91A, F92Y, S93N, F94W
B14: BIIB-9-477 (antibody, V domains shown)
VH: EVQLLESGGGLVQPGGSLRLSCAASGFTFSNYAMSWVRQAPGKGLEWVSAISGSGGSTYYADSVKGRFTISRDNSKNTLYLQMNSLRAEDTAVYYCARGGVYSSSWMRFWGQGTLVTVSS
VL: B12 VL with N32S, Y49F, D70E, P80S, T85V, G91D, F92V, S93N, F94W, F96I
B15: BIIB-9-622 (antibody, V domains shown)
VH: QVQLVQSGAEVKKPGASVKVSCKASGYTFTSYYMHWVRQAPGQGLEWMGIINPSGGSTSYAQKFQGRVTMTRDTSTSTVYMELSSLRSEDTAVYYCARDGATTVSYLSFDIWGQGTMVTVSS
VL: B12 VL with N32S, D70E, P80S, T85V, G91H, F92S, S93T, F94W, F96P
B16: BIIB-9-1268 (antibody, V domains shown)
VH: QVQLVQSGAEVKKPGASVKVSCKASGYTFTSYYMHWVRQAPGQGLEWMGIINPSGGSTSYAQKFQGRVTMTRDTSTSTVYMELSSLRSEDTAVYYCARDPPSWYVFDIWGQGTMVTVSS
VL: B4 VL with L4M, R31S, D91A, Y92T, N93V, Y94W
B17: BIIB-9-631 (antibody, V domains shown)
VH: B12 VH with D99A, T100E, G101N, G102R, Y103G, A104D, F105Y, D106E, I107A
VL: B11 VL with S31R, G91R, N92T, I96L
B18: BIIB-9-1285 (antibody, V domains shown)
VH: B15 VH with H35V, D99V, G100P, A101T, T102Y, T103R, V104Y, S108A
VL: B12 VL with D70E, P80S, T85V, G91A, F92S, S93N, F96P
B19: BIIB-9-564 (antibody, V domains shown)
VH: QVQLQESGPGLVKPSETLSLTCAVSGYSISSGYYWAWIRQPPGKGLEWIGSIYHSGSTYYNPSLKSRVTISVDTSKNQFSLKLSSVTAADTAVYYCARDPGYSWEYFDYWGQGTLVTVSS
VL: B11 VL with V11L, G28S, W32Y, A34N, G91S, N92V, S93A, F94V, I96P
B20: BIIB-9-886 (antibody, V domains shown)
VH: QVQLVQSGAEVKKPGASVKVSCKASGYTFTSYYMHWVRQAPGQGLEWMGIINPSGGSTSYAQKFQGRVTMTRDTSTSTVYMELSSLRSEDTAVYYCARDPAHSYLDAFDIWGQGTMVTVSS
VL: B11 VL with G91A, N92S, I96F
B21: BIIB-9-578 (antibody, V domains shown)
VH: QLQLQESGPGLVKPSETLSLTCTVSGGSISSSSYYWGWIRQPPGKGLEWIGSISYSGSTYYNPSLKSRVTISVDTSKNQFSLKLSSVTAADTAVYYCARDKYQDYSFDIWGQGTMVTVSS
VL: B11 VL with S30D, G91A, S93F, F94L, I96F
B22: BIIB-9-608 (antibody, V domains shown)
VH: QLQLQESGPGLVKPSETLSLTCTVSGGSISSSSYYWGWIRQPPGKGLEWIGSIYYSGSTYYNPSLKSRVTISVDTSKNQFSLKLSSVTAADTAVYYCARDRLETSEAGMDVWGQGTTVTVSS
VL: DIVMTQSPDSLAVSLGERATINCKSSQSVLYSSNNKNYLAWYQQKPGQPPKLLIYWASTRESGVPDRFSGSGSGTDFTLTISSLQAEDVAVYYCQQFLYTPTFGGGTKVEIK
B23: BIIB-9-558 (antibody, V domains shown)
VH: EVQLVESGGGLVKPGGSLRLSCAASGFTFSSYSMNWVRQAPGKGLEWVSSISSSSSYIYYADSVKGRFTISRDNAKNSLYLQMNSLRAEDTAVYYCARSYGYGYHDFDLWGRGTLVTVSS
VL: DIQMTQSPSTLSASVGDRVTITCRASQSIGSWLAWYQQKPGKAPKLLIYKASSLESGVPSRFSGSGSGTEFTLTISSLQPDDFATYYCQQAGSYSFTFGGGTKVEIK
B24: BIIB-9-628 (antibody, V domains shown)
VH: QVQLVQSGAEVKKPGASVKVSCKASGYTFTSYYMHWVRQAPGQGLEWMGIINPSGGSTSYAQKFQGRVTMTRDTSTSTVYMELSSLRSEDTAVYYCAREPIAYGATLDLWGRGTLVTVSS
VL: EIVLTQSPGTLSLSPGERATLSCRASQSVSSDYLAWYQQKPGQAPRLLIYGASSRATGIPDRFSGSGSGTDFTLTISRLEPEDFAVYYCQQYVVFPFTFGGGTKVEIK

Positions count from the first letter of the chain named.

In the test the target is free FIXa (activated Factor IX) (UniProt P00740 47-191; P00740 227-461). The test can be described thus: BLI. For orientation: BLI is a label-free optical method that tracks binding on a fibre tip over time.
Consider B1, for which the Kd (in general, the equilibrium constant for the complex coming apart) is 8.99 nM. With B2, the Kd is 5.93 nM. With B3, the Kd was determined as 4.89 nM. With B4 the figure was 9.11 nM. In turn, B5 returned a Kd of 11.9 nM.

Turning to B6, the Kd is 2.98 nM.

In turn, B7 registered a Kd of 14 nM. On to B8, for which the Kd is 17.2 nM. Regarding B9, the Kd came to 8.76 nM.

For B10, binding was characterised by a dissociation constant (Kd) of 5.5 nM. Take B11: the Kd came out at 32.4 nM. To B12 belongs 44.5 nM; to B13, 16.5 nM; to B14, 8.63 nM. For B15, binding was put at a Kd of 18 nM.

Molecule B16 returned a Kd of 51.5 nM. With B17 the figure was 61.2 nM. To B18 belongs 60.2 nM; to B19, 17.4 nM. B20 gave a Kd of 30.8 nM. To B21 belongs 4.91 nM; to B22, 11.4 nM; to B23, 1.1 nM. Turning to B24, the affinity, expressed as Kd, was 108 nM.

(Values after patent US20230192896A1 (published 2023).)
